Assay results as given in article PMC4824898, “Characterisation of Schizosaccharomyces pombe α-actinin” (PeerJ, 2016).
Like-named read-outs stand apart in the source and are kept apart here.

Legend:
[1] = target: the molecule itself; assay: SEC; gel filtration on Superdex 200 10/300GL in 50 mM Tris-HCl, pH 7.6, 200 mM KCl (also Sephacryl S-400HR in 25 mM sodium phosphate, pH 7.6, 150 mM NaCl); elution compared with reference proteins; dimer formation judged from apparent size
[2] = target: the molecule itself; assay: as above; remark: listed apart in the source

| Protein | binding result [1] | binding result [2] |
| --- | --- | --- |
| ABD-ROD of S. pombe α-actinin (domain or fragment, Schizosaccharomyces pombe, UniProt O13728 1-483, looked up, 485 residues in all; also called pTEV-SP-ABD-ROD; source: E. coli BL21(DE3), purified (nickel chelating column, TEV cleavage, ion exchange when necessary); not shown: 10xHis, N-terminal, cleaved) MQANQWQSVQNRTFTKWFNTKLSSRDLPSVFDLRKDLSDGILLIQLLEIIGDENLGRYNRNPRMRVHRLENVNKALEYIKSKGMPLTNIGPADIVDGNLKLILGLIWTLILRFTIADINEEGLTAKEGLLLWCQRKTANYHPEVDVQDFTRSWTNGLAFCALIHQHRPDLLDYNKLDKKNHRANMQLAFDIAQKSIGIPRLIEVEDVCDVDRPDERSIMTYVAEYFHAFSTLDKVETAARRVERFTEVLMSTHDMKIDYESRMKRLLGSIARMQEYWHTVQFENNYTDVKSHSNNFAKFKATEKREWVKEKIDLESLLGTIQTNLKTYQLRKYEPPAGLKIVDLERQWKDFLSEEANQSKLINTHMREIKESMRIAFADRANSFSKMLSTISNEITNLQGDWRDQLDHVEFLQEHLGPLEVELASVKVLYDNCFQAGIEENDYTMFSYEDLEHEFGITANIIANKIKYLENELLEREKRTLSK | binds | – |
| full-length S. pombe α-actinin (natural protein, Schizosaccharomyces pombe, UniProt O13728 1-621, looked up, also called full length α-actinin; pTEV-SP; source: E. coli BL21(DE3), purified (nickel chelating column, TEV cleavage, ion exchange when necessary); not shown: 10xHis, N-terminal, cleaved) MQANQWQSVQNRTFTKWFNTKLSSRDLPSVFDLRKDLSDGILLIQLLEIIGDENLGRYNRNPRMRVHRLENVNKALEYIKSKGMPLTNIGPADIVDGNLKLILGLIWTLILRFTIADINEEGLTAKEGLLLWCQRKTANYHPEVDVQDFTRSWTNGLAFCALIHQHRPDLLDYNKLDKKNHRANMQLAFDIAQKSIGIPRLIEVEDVCDVDRPDERSIMTYVAEYFHAFSTLDKVETAARRVERFTEVLMSTHDMKIDYESRMKRLLGSIARMQEYWHTVQFENNYTDVKSHSNNFAKFKATEKREWVKEKIDLESLLGTIQTNLKTYQLRKYEPPAGLKIVDLERQWKDFLSEEANQSKLINTHMREIKESMRIAFADRANSFSKMLSTISNEITNLQGDWRDQLDHVEFLQEHLGPLEVELASVKVLYDNCFQAGIEENDYTMFSYEDLEHEFGITANIIANKIKYLENELLEREKRTLSKQELDGITKVFRHFEKKKSNMLNEVEFYAALASLGLVYDTEEGTALFHRAANSEEGVTYERFTEIVMEELEDRDSARQVLYAFCDVADGKSYVTSDDLLRSQVRPNIVKFLECNMNKHSEGLDYLTWIKQLLAEDKEIV | – | binds |
| ROD-EF of S. pombe α-actinin (domain or fragment, Schizosaccharomyces pombe, UniProt O13728 228-621, looked up, 396 residues in all; also called pTEV-SP-ROD-EF; source: E. coli BL21(DE3), purified (nickel chelating column, TEV cleavage, ion exchange when necessary); not shown: 10xHis, N-terminal, cleaved) AFSTLDKVETAARRVERFTEVLMSTHDMKIDYESRMKRLLGSIARMQEYWHTVQFENNYTDVKSHSNNFAKFKATEKREWVKEKIDLESLLGTIQTNLKTYQLRKYEPPAGLKIVDLERQWKDFLSEEANQSKLINTHMREIKESMRIAFADRANSFSKMLSTISNEITNLQGDWRDQLDHVEFLQEHLGPLEVELASVKVLYDNCFQAGIEENDYTMFSYEDLEHEFGITANIIANKIKYLENELLEREKRTLSKQELDGITKVFRHFEKKKSNMLNEVEFYAALASLGLVYDTEEGTALFHRAANSEEGVTYERFTEIVMEELEDRDSARQVLYAFCDVADGKSYVTSDDLLRSQVRPNIVKFLECNMNKHSEGLDYLTWIKQLLAEDKEIV | binds | – |
| rod domain (ROD) of S. pombe α-actinin (domain or fragment, Schizosaccharomyces pombe, UniProt O13728 228-483, looked up, alpha-actinin of Schizosaccharomyces pombe, rod domain with two putative spectrin repeats, nucleotides 682-1449, residues 228-483; 258 residues in all; also called pTEV-SP-ROD; source: E. coli BL21(DE3), purified (nickel chelating column, TEV cleavage, ion exchange when necessary); not shown: 10xHis, N-terminal, cleaved) AFSTLDKVETAARRVERFTEVLMSTHDMKIDYESRMKRLLGSIARMQEYWHTVQFENNYTDVKSHSNNFAKFKATEKREWVKEKIDLESLLGTIQTNLKTYQLRKYEPPAGLKIVDLERQWKDFLSEEANQSKLINTHMREIKESMRIAFADRANSFSKMLSTISNEITNLQGDWRDQLDHVEFLQEHLGPLEVELASVKVLYDNCFQAGIEENDYTMFSYEDLEHEFGITANIIANKIKYLENELLEREKRTLSK | binds | – |
